Assay results reported in paper doi:10.1101/553636.

Target: BD-Barstar D35A
Assay: two-hybrid

For AD-Barnase H102A (enzyme), the Kd was 0.011 to 0.122 µM.
